The results in this text go back to US8168587B2, “Combination enzyme replacement and small molecule therapy for treatment of lysosomal storage diseases” (Genezyme Corporation, priority 2000, dated 2012).

The subject of the assay is Fabry mice. Description: Sequential enzyme replacement then small molecule therapy: GB3 re-accumulation in Fabry mouse liver.

Text: In vivo efficacy of combination enzyme replacement therapy plus small molecule therapy in Fabry disease. […] Study protocol for sequential combination of enzyme (α-galactosidase A) replacement followed by small molecule administration (NB-DNJ, AMP-DNJ or D-t-et-P4) on globotriaosylceramide (GB3) re-accumulation in Fabry mice. […] Results of study protocol for Fabry mouse liver tissue. GB3 re-accumulation at four weeks (μg GB3 per gm liver tissue) is plotted on the ordinate versus absence of small molecule treatment (Vehicle) or daily intra-peritoneal small molecule therapy with D-t-et-P4 (at either 5 mg/kg or 0.5 mg/kg), NB-DNJ (at 500 mg/kg), or AMP-DNJ (at 100 mg/kg).
Fabry mice were used to test the in vivo efficacy of combining enzyme replacement therapy with small molecule therapy in a sequential treatment format (FIG. 1). The study was designed to evaluate whether substrate inhibition (i.e. “substrate deprivation therapy”) using small molecules of the DNJ and P4 types could reduce re-accumulation of the storage material globotriaosylceramide (GB3). The study protocol (FIG. 1A) called for a single infusion of α-galactosidase A enzyme to reduce GB3 levels (measured at two weeks) to a “Baseline” level in Fabry mouse liver. GB3 re-accumulation was then measured at four weeks in control mice receiving no small molecule therapy (“Vehicle”) and in mice receiving various small molecules at various doses. Accordingly, two weeks after GB3 levels were reduced to a “Baseline” level of about 0.1 μg/g liver (FIG. 1B), a small molecule or vehicle was administered by intra-peritoneal (IP) injection.

With “D-threo-1-(3′,4′-ethylenedioxy)phenyl-2-palmitoylamino-3-pyrrolidino-1-propanol [D-t-et-P4, reference compound]”, where the note is “5 mg/kg daily IP after single α-galactosidase A infusion, four week time point, vehicle about 0.8, baseline about 0.1”, the “GB3 re-accumulation in Fabry mouse liver tissue” value was “less than 0.4 μg/gm”.

B1: α-galactosidase A: lysosomal enzyme deficient in Fabry disease, given as a single intravenous infusion for enzyme replacement (protein, UniProt P06280 32-429, looked up)
Alpha-galactosidase A: LDNGLARTPTMGWLHWERFMCNLDCQEEPDSCISEKLFMEMAELMVSEGWKDAGYEYLCIDDCWMAPQRDSEGRLQADPQRFPHGIRQLANYVHSKGLKLGIYADVGNKTCAGFPGSFGYYDIDAQTFADWGVDLLKFDGCYCDSLENLADGYKHMSLALNRTGRSIVYSCEWPLYMWPFQKPNYTEIRQYCNHWRNFADIDDSWKSIKSILDWTSFNQERIVDVAGPGGWNDPDMLVIGNFGLSWNQQVTQMALWAIMAAPLFMSNDLRHISPQAKALLQDKDVIAINQDPLGKQGYQLRQGDNFEVWERPLSGLAWAVAMINRQEIGGPRSYTIAVASLGKGVACNPACFITQLLPVKRKLGFYEWTSRLRSHINPTGTVLLQLENTMQMSLKDLL
For the molecule B1, the “Baseline GB3 level in Fabry mouse liver” value is, setting by setting: (two weeks after a single infusion of α-galactosidase A enzyme) “about 0.1 μg/g liver”; (two weeks after a single α-galactosidase A intravenous infusion) “about 0.1 μg/gm liver tissue”.
